Laboratory results published in the DeepSol protein solubility set.

Assay: soluble on expression in E. coli; label from the status in PepcDB or PDB records

| Sequence | soluble on expression in E. coli |
| --- | --- |
| MGSDKIHHHHHHMSFFDTLSGLSREQLRMALYSTTPAQVETAIEGEQGNLGHLLALLSPAAEEYLEPMAQRAAALTRQRFGHNIGLYLPLYLSNLCANECDYCGFTMSNKLKRKVLSHDELAAEMAVIKPQGFDSILLVSGEHETKVGIEYFADILPLVKAEFSHVAMEVQPLSREHYEILVEKGLDAVMLYQETYDPETYRRHHLRGNKQDYGYRLASPERIAQAGVDKIGLGVLLGLDDWRMDALLMGYHLDYLERRFWRSRYSISLPRLRPCVGGITPKVQLTDKGLVQLICAFRLFNEQLEISLSTRETPSLRDNLLGLGITQMSAGSRTEPGGYVNPAAQLDQFEISDERSAAEVASVLRSRGFTPVWKDWEAGWIGAG | not soluble |
| MRKVTLMDVFTHPIAQKYLQRSGVAHAIACAYHAYRLSVKADINPDLAAKAALLHDIGHYEWYTDGKWDYEKYKRNDIHAIKGAERAHKLLIRLGEEPKAAKEIALAILLHTDSYLPEGELDKNTLQQIVKKADELDEEPGGHHHYRQIDPSTARKKIEKLDQLIDQAQASVIKPV | not soluble |
| MSESSHVGLWNRCLEIIRDNVPESTYKTWFVPIVPLKYEDKTLIVQVPSQFFYEFLEDKFVDLLRKTLYKVIGDGTKLMYNVLVDKSSGATVNQESTTRSTAIPQSGLPRVDERKAPGLLRAPAVQDLDPHLNPNYNFETFIEGYSNKLSRSVAEAVAENPAKTVFNPLFLHGASGVGKTHLANAIGTRIKELYPDKRVLYVSAHLFQVQYTDSVRNNTTNDFINFYQTIDVLIIDDIQEFAGVTKTQNTFFHIFNHLHQNGKQLILTSDRAPVLLQGMEERLLTRFKWGMVAELEKPTVELRKNILRNKIHRDGLQFPSEVIDYIAENVNESVRDLEGIVISIMAHSTIYNKEIDLDLAQRIVRKVVRCETKAVTIDDIINVVCKHFDLESSAIHTKSRKREVVQARQVAMYLAKTHTDFSTSKIGKFIGNKDHATVLHACKTVKGQCEVDKGFRSDLENIETLLKKRNVSNGERLEHHHHHH | soluble |
| MPQNYPWLNTEQPLSIKQLNGRVVILDFWTYCCINCLHVLPDLKYLEQKYKDSLTVIGVHSAKFDNEQETENIRQAILRYDIEHPVLVDKDFRVWQEYAVRAWPTLMVIDPKGYVIGYVSGEGNRDKLDQLITQVIQEHQGAINFQQLSLTLEKQRQPLITPLAFPGKVLATPSGLFVADSGHHRIVVSDFNGEILHLIGNGKSGLTDGNFQEAQFSAPQGMAFDMENQILYLADTENHALRRVDINQQTVETIAGTGEQSRNIQPHGGVGLETALNSPWDLVNIENSLYIAMAGVHQIWQMDLASGVIKTYAGTGVEACLDASLTESAFAQPSGITNNEQELYIADSEISSIRGVGLVEPQEVRTVCGSGGLFGFGDVDGQGEDVRLQHCLGVEYFQNYLWVADTYNHKIKSVSPHTGNCQTVLGDGLAGLQNGQGKNTRFFEPSGLSAIDSYLYISDTNNHVIRRVDLRTLEVTTMQFNGLCAPDVCIPNNFLEHHHHHH | soluble |
| MGSDKIHHHHHHMVDADQLRQWGRKVIDTERNALDNLYQYVDSSEFAKACQLILACTGKVIVMGMGKSGHIGNKISATLASTGTPAFFVHPGEASHGDLGVLSENDIVLAISNSGEASEILTLMPVIKRMGLPVIAVTGKPESNMAKHSVVHLCIEVPEEACPLGLAPTSSTTATLVMGDALAVALLQARGFTKDDFALSHPGGSLGRKLLLKVSDVMHKGDDLPLVAEDICITEALYEISKKGLGMTGVVNSQGMLVGIFTDGDLRRVIDAEINLRKTSISEVMTHGCVTVSEGILAAQALKVMDEKEINGLIVTDEQQKPIGALNMLDMVKAGVI | not soluble |
| MDPEALNLEFYDKNGLDNPIHFRCDPKRIGMTLPSPDFSVDDVLELVGGNRMIEVVQVQNQGSVKMSLQEFINFYKTPQEKREVLYNVLSLEFSQTPLEDLVKSPELVRQIDWVGNQWPDALRQRWISFNGRDKKFYNPHHTFPKVQNYCLMSVANCYTDFHIDFSGTSVWYHVLKGRKVFWLIPPTETNFFIYQEFIKTVNDNAFFGKSVEKCHVAILEPGDTMLIPSGWIHAVYTPDDSLVFGGNFLHSQSCKTQLRVYQVENKLNITRKFRLPYNEELIFYVIADYVKQWTGREYVRPLRIEDAKYDYVGDKWKTAGGHHKKIEYSDYETGVELTNDMIKGDEESTKDEVKVIAMHAENSLFGYPMVSKATFSADTGLEEEADEDEVKYQETKEEMDARRDAEIDELANSNSLIFYKNRTHDFVRNKCVPDHKLPIGHEPPIYFNDDEISRISPRLLDELETLGTYIRRKARVEVAEGICQPASLINTFQTVLKKRRSELTGKKFEFNQIMPRRYTRSTMETGEYDFQPTQEVPQESARRSTRFKVDNFPDELLESEVTDKPIILPQQPSSGPLEYLPAPKDEIKEDINGFEEEFEEEYEGIGQRDDQEEEEYDAEEPEDQEEEEEDEYQAEEYTPTPVTRRSSSRRSGAKNDESEEVSVKKDKKEKMEKVEKDEKRRNSKSKKDKISKEKKKKERERIELESQLDAELRAAHGGGSSKSKKKKPEKPAFVGGLPTSSIQIDPVVSNPYNYDPRMEMMKLGTGQLKSAYRKTKNNVELHIEKNLYKIEPKRGSEEGSQSREQSMEPEHSTPVFTTFDDINEANNDHYDGQKPPTKRAKYEAISVDTYETPSSSRNKEHKEYRPSPNAAPTPSPSHHQKPKLSSPAMVSSTNEYQLRKHMSSERRSSDAGSAMKKGVYMPAMSRQDKMIAEGASAPSSRHSSISSERRPSFIPDFNSSRNSSIDTPYTPTTVTPSRSSWLPNTSSINRHSIEDDSPIDVVNDSLSPINIASSPTYPTAITPPPVTLSDLKKDMSNGRKSHSQHHDDGHKHKIPSKEAIAELKLLVGKLKAINDS | not soluble |
| MELNDMAQFNEPISSQLLAIDENLTQLVTDIDILSSVNPLNYAQERERFISNKYSQEPNFQYQKAPLDTHQSKRRLYELPLEHIEDTQLQKLYEDVIQSYADKLDQVNTIGTQEFLYNSLRYYGEPSAKDIANAHFILHLPTEEESKPEHDSRSIAHFMQSFADKNGYECEIQILDGMLANALVSGSRVKINSAAHITTDELEALAHHEMGVHLLTTLNGRQQPLKVLSLGCPANTNTQEGLAILCEYLSGHFSIKRLRTLALRVLAVESMIKERDFRHTFMLLKEQYKASDVQAFTITSRVYRGGGLTKDYLYLRGFREVLNAYDKLGDDFSLLLCGKTELKYFDLIRSLVNKGIFTQPKFISPALSTPKQTNPIHRYIVSALKLEHHHHHH | soluble |
| SKDIDMGKEYIIPSPGYRSDRDRSAVPGQHRDPEEPRFRRTRSLECQDALETAARVEGLSLDISVHSHLQILDEEHSKGKYHHGLSVLKPFRTTTKHQHPVDNAGLFSYMTFSWLSPLARVVHKKGELLMEDVWPLSKYESSDVNSRRLERLWQEELNEVGPDAASLRRVVWIFCRTRLILSIVCLMITQLAGFSGPNFQDGCILRSE | soluble |
| MATVDPIRYPIGTFQAPQQFEAGEVQEWIAAIRGLPNDLRTAVSGLNDEQLNTPYRDGGWTVAQVVHHLADASMNAFLRTKWGVTEDGPTVKPFAESEWAKTADACSLPIEPSLLLLDGLHARWAALLESMTEADFHRTVRPEGAAGEMPLYVLTALYAWHGKHHTAQVASLRKRKGW | not soluble |
| MSTPDGDEKEQCFHRAIAKTSIYLDREPGNPELTVWLAINKASLAGAQGGFGALSLAKEAKSLLEGVIATSPQTLDGSAYTSLGSLYYKVPGWPIGFGDDDKAEEMLKKALEINPKGIDPNYFYGDFLAEEGRDKEAKVYLTRAMQASPRPLEHHHHHH | not soluble |
| MSLADRLLDIKRIYHEPGIERFPRARAVLERYPDAERVEVLSHQAIPGLYGNEGNVEDWVRNKREVMVIGEKKSLSARRNERSSDWIAPSTANGCAMACSYCYVPRRKGYANPITVFANIEKITGYLERHAARQGAKPEPNQCDPIDWVYDIGENSDCSADAMVSDNVRDLVDLFGRIPNAKASFATKLVNRDLLTYEPRGGTRVRFSLMPAETSRLVDVRTSKISDRIAAIDDFVEAGYEVHLNFSPVIVHENWIADWADLLEQIADQTNDRTRRQLAAEVIFLTHNEGLHDVNLGWHPKGEELLWRPDLQQLKRSQSGQWNVRYKSPWKGKWVQQMTDLVADRLPDCRIRYAEGHHHHHH | not soluble |
| MPLGLFSSGKAQVLCDEKIPGGKKKEPKQLSENKCKGVTLKLDHTRVTIEKQIAEGGFAIVYVASDRKNNKFALKRQFTKDNEKQLEACCREHSFLKQCIGHKNIVEFVDSYTNCLGNGIWECMLLTEYHQKNVLQLMNERISQNQYLTNDEILSIFTDLCEAVSFIHNRPQPIIHRDLKVENVLISSHKPPHYVLCDFGSATTQILSVEKYGVEYVKSEVERNTTMCYRSPEMIDFYSGLEIGLKSDIWALGVLLYRLCFFCVPFEESPLAIQSVNYQFPSVPNIPDEIKVLIYMLLDIDVNRRPSIYQTSVLAFEANHRKPLSEEIQNKKCTDAVPSLKSCIQLMRDGSNPRNKRDSSPRNPEAPPIQSSSKMASLSQQVPSISNISMPSGSGTVETSVAPRLRPKATTVVPNVPSISPVPPVGLPHLRLPSKGSTDETDGSQVRKVPIDFHHRQSFSGEEQLKPAAEADSAGPLSCPLIKPTDLGFTDLDKPALPRDRAQTDGKRRLPHESDIIFQQQHRRNVSDTSQISRSAFKPYSSQQTTSKTSSQVVRSVEDMSQRQNGGSGEWNPFLVAPFSNNSISRKDGQESAFMMDDSHFGMVFDEIRRKEIPAELDSETSSIDSRDPFGAAPFDQLTVSTSSSAQPVSLPPATDEDDERQLLSETDEEEKYEIDEKEEIQTKKDETINEEDSEIDEQRMNDRRRYSYENIDGVGDDASSDSRGKTDRDDSEEEEDDDSRRGGDTSHDEDSQNTVGSEDGEGGSRPLLEDDGLEDDDDHELISSFSSSSTNYPPLFIGTSTPHTQNPITNPFLRDELTPKMIITAPLPTAKNNLDDDWDLGDRWTDRRDTVFERPASEHQNVFAPATLPRQATPLVCRFKPDLPTAAPVSIIPSMSNTSFPEAVRDSDTVPCEPIIGTLISVGAPTDPPPPPLPKKPTEASPTQETTATIPVALGKKEKLLKKEKKKEKKDGKKDKLKLEEYREKGSSEPETDGSEAEIWTNDGATTFSNKKKKKSTFGLRSSHPSIVANDLQFSSPMPPVVKKSSKDKKSSLTGKNASFVNTSFQPEDHDDPTDL | soluble |
| MVKLTSIAAGVAAIAATASATTTLAQSDERVNLVELGVYVSD | not soluble |
| MIKLERETKPDYLSDEKVFELTESFKATKKSVWNHDHIKIPLLRSSHSKCAYCECPLTSASNYMEVEHFEDKNHYPEKVVLWENLLPSCKKCNGAKGQHDVIGDPIINPYVEDPKNHLSMRLYRFRAKSDKGQSTIEVTQLNSSDRSVFCRYEIGEKISEMIDLGFERWNEYLVRNNTRSKNKLVNLVQGLLNECQPTSSYSASTATNLLTDPKFIELMSLMREADIVSEELDDLILKASTLVLDYVLEHHHHHH | not soluble |
| MDSARALIARGWGVSLVSRCLRVSRAQLHVILRRTDDWMDGRRSRHTDDTDVLLRIHHVIGELPTYGYRRVWALLRRQAELDGMPAINAKRVYRLMRQNALLLERKPAVPPSKRAHTGRVAVKESNQRWCSDGFEFCCDNGERLRVTFALDCCDREALHWAGTTGGFNSETVQDVMLGAVERRFGNDLPSSPVEWLTDNGSCYRANETRQFARMLGLEPKNTAVRSPESNGIAESFVKTIKRDYISIMPKPDGLTAAKNLAEAFEHYNEWHPHSALGYRSPREYLRQRACNGLSDNRCLEI | not soluble |
| MFKFHLITKDGKARRGRIYTPHGVIETPVFMPVGTQGTVKAMLHKLLDEIGTQIILGNTYHLYLRPGTEIIKKAGGLHRFISWNKPILTDSGGYQVFSLAKGKFGNRKAKVKVSDEGVEFQDHLQGDKHFFTPEKVVEIQEIFGSDIMMPLDECVEYPVDKNYAEKALKRTINWLERSIKAKKREDQVLFGIVQGAFWKDLRKKAVEETLKFDEFLFGYSIGGLSVGEPKEIMYGMTEVVCELLPEKKPRYLMGVGKPEDILEAVERGVDMFDCVVPTRNARTGTLYTSQGVVDIRHSKWKEDFSPLDPECDCYTCRNFSKAYLRHLFVAEEISAYVLNTIHNLRFYLKMMEEVRKAIEEKRFKELKEKYLQRVKNKL | soluble |
